Test results: EP2045266A1 (INSERM (Institut National de la Santé et de la Recherche …, dated 2009)

Molecular target: T1, LexA DNA-binding domain fusion of 4 kDa pro-fragment of human cath-D (human, UniProt P0A7C2 1-202; P07339 21-64, limits assumed)
T1 construct: also called 4 kDa pro-fragment (yeast two-hybrid bait)
T1 sequence (looked up): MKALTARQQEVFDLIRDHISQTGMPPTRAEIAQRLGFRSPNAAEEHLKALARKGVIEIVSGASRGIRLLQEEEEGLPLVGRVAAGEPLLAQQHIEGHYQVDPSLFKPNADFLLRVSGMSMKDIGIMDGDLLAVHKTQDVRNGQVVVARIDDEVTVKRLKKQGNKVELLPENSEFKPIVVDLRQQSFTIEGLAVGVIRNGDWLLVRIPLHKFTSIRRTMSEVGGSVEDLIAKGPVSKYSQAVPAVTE
Experiment: yeast two-hybrid

binding result: no binding
B1: B42 activation domain fusion of LRP1β (307-479) (yeast two-hybrid clone, pYESTrp2-LRP1β (307-479)) (other, not shown: large carriers)
chain: PSGMPTCRCPTGFTGPKCTQQVCAGYCANNSTCTVNQGNQPQCRCLPGFLGDRCQYRQCSGYCENFGTCQMAADGSRQCRCTAYFEGSRCEVNKCSRCLEGACVVNKQSGDVTCNCTDGRVAPSCLTCVGHCSNGGSCTMNSKMMPECQCPPHMTGPRCEEHVFSQQQPGHIA
notes: also called the clone isolated in the screen
